The values below are quoted from earlier work in PMC12608911.

Like-named read-outs stand apart in the source and are kept apart here.

Series [1] concerns the target TREM-1 (Mus musculus) (UniProt Q9JKE2).
For series [2] the target is unchanged. The source holds these as a separate data set.
Series [3] has as its target TREM-1 (Homo sapiens) (UniProt Q9NP99).
Target sequence in this assay (Q9NP99 21-234): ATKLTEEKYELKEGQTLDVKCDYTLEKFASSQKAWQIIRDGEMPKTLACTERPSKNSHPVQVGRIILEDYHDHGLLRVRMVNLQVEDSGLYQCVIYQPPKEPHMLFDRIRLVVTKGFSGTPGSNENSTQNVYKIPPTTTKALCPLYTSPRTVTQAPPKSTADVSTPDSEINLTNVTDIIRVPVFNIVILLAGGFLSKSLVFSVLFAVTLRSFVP
Series [4] shares this target. This is another data set of the same source.
Target sequence in this assay (Q9NP99 21-205): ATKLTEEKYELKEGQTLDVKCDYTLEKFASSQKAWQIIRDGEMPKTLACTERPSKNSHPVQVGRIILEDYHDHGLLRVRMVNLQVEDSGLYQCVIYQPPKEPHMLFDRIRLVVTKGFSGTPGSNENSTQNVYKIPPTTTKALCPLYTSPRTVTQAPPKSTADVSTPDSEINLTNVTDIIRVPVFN
The target is the same in series [5]. The source holds these as a separate data set.
Target sequence in this assay (Q9NP99 21-205): as above
The target is the same in series [6]. This is another data set of the same source.
Target sequence in this assay (Q9NP99 21-205): as above
The target of series [7] is TREM-1 (Mus musculus) (UniProt Q9JKE2). This is another data set of the same source.
Sequence of TREM-1 (Mus musculus) (Q9JKE2 21-230): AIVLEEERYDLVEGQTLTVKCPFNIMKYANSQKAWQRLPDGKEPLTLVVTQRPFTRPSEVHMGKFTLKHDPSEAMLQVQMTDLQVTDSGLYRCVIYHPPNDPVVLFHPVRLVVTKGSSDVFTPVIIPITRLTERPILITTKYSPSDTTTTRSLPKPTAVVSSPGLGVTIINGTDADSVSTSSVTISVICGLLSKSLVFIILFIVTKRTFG

Sequence of CIRP (P60824 whole entry): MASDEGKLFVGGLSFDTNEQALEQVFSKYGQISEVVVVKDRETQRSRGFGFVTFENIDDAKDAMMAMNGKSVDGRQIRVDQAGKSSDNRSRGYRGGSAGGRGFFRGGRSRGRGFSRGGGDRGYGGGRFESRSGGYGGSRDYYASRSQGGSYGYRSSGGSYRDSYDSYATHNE
Sequence of eCIRP (P60824 whole entry): as above
Sequence of HSP70 N7 peptide (P0DMV8 2-641): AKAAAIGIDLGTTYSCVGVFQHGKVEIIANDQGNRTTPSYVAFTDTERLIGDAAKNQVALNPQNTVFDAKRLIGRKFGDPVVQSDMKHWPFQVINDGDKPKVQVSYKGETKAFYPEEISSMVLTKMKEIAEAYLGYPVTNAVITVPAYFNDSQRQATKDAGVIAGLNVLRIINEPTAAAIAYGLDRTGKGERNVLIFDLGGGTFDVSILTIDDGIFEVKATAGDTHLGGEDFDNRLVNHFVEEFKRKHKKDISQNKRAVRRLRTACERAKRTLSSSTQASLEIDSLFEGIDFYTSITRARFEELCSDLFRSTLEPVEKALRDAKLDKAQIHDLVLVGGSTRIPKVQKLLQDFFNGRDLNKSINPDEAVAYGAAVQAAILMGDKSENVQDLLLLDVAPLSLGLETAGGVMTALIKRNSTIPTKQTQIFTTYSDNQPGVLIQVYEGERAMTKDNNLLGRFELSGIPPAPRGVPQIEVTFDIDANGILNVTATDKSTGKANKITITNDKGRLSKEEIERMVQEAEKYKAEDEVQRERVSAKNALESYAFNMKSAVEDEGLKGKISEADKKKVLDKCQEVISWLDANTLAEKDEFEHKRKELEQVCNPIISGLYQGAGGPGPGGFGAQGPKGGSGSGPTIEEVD
Sequence of HMGB1 (P63158 whole entry): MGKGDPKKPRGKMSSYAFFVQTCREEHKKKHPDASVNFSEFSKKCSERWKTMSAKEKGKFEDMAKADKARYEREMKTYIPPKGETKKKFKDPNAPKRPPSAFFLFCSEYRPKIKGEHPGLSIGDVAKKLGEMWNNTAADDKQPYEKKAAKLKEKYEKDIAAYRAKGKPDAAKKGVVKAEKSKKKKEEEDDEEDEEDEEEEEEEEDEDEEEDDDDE
Sequence of PGLYRP1 peptide N15 (O75594 22-196): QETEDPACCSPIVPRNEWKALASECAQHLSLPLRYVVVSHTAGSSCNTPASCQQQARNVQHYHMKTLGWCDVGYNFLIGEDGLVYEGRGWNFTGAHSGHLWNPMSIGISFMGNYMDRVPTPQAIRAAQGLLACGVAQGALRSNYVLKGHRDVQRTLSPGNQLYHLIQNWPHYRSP
Sequence of PGLYRP1 peptide N9 (O75594 22-196): as above
Sequence of PGLYRP1 peptide 17 (O75594 22-196): as above

As to CIRP (from UniProt P60824), the Kd with TREM-1 (Mus musculus) [1] is 120 nM.
As for HMGB1 (from UniProt P63158), in the series with TREM-1 (Mus musculus) [2], the Kd was 35400 nM.
Take HSP70 N7 peptide (from UniProt P0DMV8): the Kd with TREM-1 (Homo sapiens) [3] is 1.6 nM.
Turning to “PGLYRP1 peptide 17 (from UniProt O75594)”, the Kd in the series with TREM-1 (Homo sapiens) [4] is 1.3 nM.
Turning to “PGLYRP1 peptide N9 (from UniProt O75594)”, in the series with TREM-1 (Homo sapiens) [5], the Kd was 9.7 nM.
In the case of “PGLYRP1 peptide N15 (from UniProt O75594)”, the Kd in the series with TREM-1 (Homo sapiens) [6] was 7.4 nM.
Take eCIRP (from UniProt P60824): in the series with TREM-1 (Mus musculus) [7], the Kd is 117 nM.

Broadly, the Kd is a measure of binding affinity in units of concentration.
